Test [1] concerns HCC70 cells. Briefly: JC-1 staining (mitochondrial membrane potential) of HCC70 cells. The class given is cell-based, human. Particulars: 24 hours, FIG. 31. The protocol:
Mitochondrial stability was evaluated using the mitochondrial membrane potential (ΔΨm) assay kit (Cayman Chemical, Ann Arbor, MI, USA) utilizing JC-1 staining. HCC70 cells (1×10^4 cells) were stimulated with IL-26 (30 ng/ml) in the presence or absence of gefitinib (40 μM), a signal inhibitor, and a neutralizing antibody in 96-well flat bottom plate (Corning) for 24 hours. […] Stained cells were quantified using Image-J software (NIH). Images were captured using a 40× objective.

For test [2], the system named is endoplasmic reticulum stress signaling in MDA-MB-468 cells. In words: qRT-PCR of endoplasmic reticulum stress markers in MDA-MB-468 cells. In kind it is cell-based, human. To be noted: 6 hours. The protocol: (§1) E0771 cells, HCC70 cells, and MDA-MB-468 cells were cultured in RPMI1640 medium containing 10% FCS on a 6-well plate (Corning), and then stimulated with IL-26 (30 ng/ml) in the presence or absence of gefitinib for 3, 6, or 12 hours. The cells were harvested and total RNA was extracted. cDNA was synthesized using PrimeScript II first-strand cDNA synthesis kit (TaKaRa Bio, Japan) and oligo (dT) primers. The mRNA levels were measured by 7500 System SDS software (Applied Biosystems, Foster City, CA) and normalized to hypoxanthine phosphoribosyltransferase expression levels.

Test [3] has as its system E0771 cells. Briefly: MTT assay / cell proliferation (confluence) assay, E0771. In kind it is cell-based, mouse. How it is done: (§2) Human and mouse breast cancer cells (1×10^4) were cultured in 10% FCS containing RPMI1640 medium on a 96-well flat bottom plate (Corning, Tewksbury, MA) at 37° C. for 24 hours, and then stimulated with IL-26 for 48 hours in the presence or absence of EGFR-TKI (gefitinib or erlotinib) at various concentrations, a signal inhibitor, and a neutralizing antibody. HUVECs were seeded in a 96-well flat bottom plate at 5×10^3 cells/well in a 2% FBS-containing EGM medium in which growth factors were reduced by half, and cultured at 37° C. for 12 hours. Thereafter, the medium was aspirated, and a recombinant human IL-26 dimer was adjusted to a final concentration of 10 ng/mL in a 2% FBS-containing EGM medium containing no growth factors, and added to the cells. The stimulation was started in the presence or absence of control human IgG and anti-human IL-26 antibodies, and the cells were cultured for 48 hours. Thereafter, a concentration of 20 μl or 1/10 of a 5 mg/ml MTT solution (Tetrazolium monosodium salt, WST-8) was added to each well, and the plate was allowed to stand for 1 hour. The absorbance at 450 nm/595 nm was measured using Microplate Reader (Bio-Rad, Hercules, CA) and data was analyzed with Microplate Manager 6 software (Bio-Rad).
(§3) Human and mouse breast cancer cells (1×10^4) were cultured in RPMI1640 medium containing 10% FCS for 24 hours at 37° C. on a 96-well flat bottom plate (Corning), and then stimulated with IL-26 (30 ng/ml) in the presence or absence of various concentrations of gefitinib and a neutralizing antibody. Cell proliferation was measured as cell confluence using IncuCyte ZOOM (Essen Bioscience, Ann Arbor, MI).
(Formazan colour is commonly taken as a measure of viable cells.)

Test [4] relates to HCC70 cells. Briefly: MTT assay / cell proliferation (confluence) assay, HCC70. The class given is cell-based, human. The protocol: as §2, §3
In test [5] the test system is endoplasmic reticulum stress signaling (DDIT3, ATF3, ATF4) in HCC70 cells. Briefly: qRT-PCR and immunofluorescence of endoplasmic reticulum stress markers in HCC70 cells. The class given is cell-based, human. How it is done: (§4) E0771 and HCC70 cells (1×10^5) were cultured for 24 hours in RPMI1640 medium with 10% FCS on Lab-Tek chamber slides (Thermo Fisher Scientific). The cultured cells were stimulated with Alexa Fluor 488 labeled IL-26 (30 ng/ml) in the presence or absence of recombinant human and mouse EphA3-Ig for 1 hour. HCC70 cells were stimulated with IL-26 (30 ng/ml) in the presence or absence of gefitinib (40 μM), a signal inhibitor, and a neutralizing antibody for 24 hours. Subcutaneous tumor samples obtained from mice were fixed in 4% paraformaldehyde (Thermo Fisher Scientific) and embedded in OCT compound (Tissue-Tek (registered trademark), Sakura Finetek, Japan). Cells and slides were immunostained with each antibody and observed using a Zeiss inverted microscope and Axiovision 2.0 program (Carl Zeiss, Germany). The fluorescence intensity was quantified with Image-J software (NIH). The images were captured using a 100×400× objective.
as §1
Background: Real-time PCR tracks product formation cycle by cycle.

In test [6] the test system is phosphorylation of AKT, JNK, STAT3 and EphA3 in E0771 cells. Briefly: Western blotting of phosphorylation in E0771 cells. The class given is cell-based, mouse. The protocol:
To analyze the phosphorylation of AKT, ERK, p38, JNK, STAT3, and EphA3, E0771 cells and HCC70 cells in 100 mm dishes were stimulated with IL-26 ([…]) and an anti-EphA3 polyclonal antibody (pAb) (10 μg/ml) for a specified period of time. After stimulation, the cells were lysed with a 2% protease inhibitor mixture (Sigma-Aldrich) and/or RIPA buffer added with 1×PhosSTOP (Roche Diagnostics, Tokyo, Japan), and a lysate was separated in a reduced state by SDS-PAGE (15 μg/lane). Immunoblots were performed using an anti-phosphorylated AKT antibody, an anti-phosphorylated ERK antibody, an anti-phosphorylated p38 antibody, an anti-phosphorylated JNK antibody, an anti-phosphorylated STAT3 antibody, and an anti-phosphorylated EphA3 antibody that recognize both human and mouse antigens. For reprobing, the membrane was immersed in a stripping buffer. After the stripping procedure, the membranes were re-probed with anti-pan-AKT, anti-pan-ERK, anti-pan-p38, anti-pan-JNK, anti-pan-STAT3, and anti-pan-EphA3 antibodies recognizing both human and mouse antigens. Images were taken using a C-Digit Blot scanner (MS Techno Systems, Inc., Japan).
Background: A western blot detects proteins with antibodies after separation by electrophoresis.

Test [7] has as its target T1, EphA3/IL-26 interaction (Homo sapiens, UniProt Q9NPH9).
T1 construct: purchased R&D Systems; host or cells: IL-26 was purchased; EphA3 is endogenous on E0771 cells
T1 sequence (Q9NPH9 22-171): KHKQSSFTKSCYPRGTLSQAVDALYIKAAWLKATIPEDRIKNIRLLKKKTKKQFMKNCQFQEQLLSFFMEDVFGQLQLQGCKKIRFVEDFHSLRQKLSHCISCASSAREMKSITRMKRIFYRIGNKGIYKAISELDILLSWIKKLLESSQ
In words: Immunofluorescence of rhIL-26-Alexa 488 and cell surface EphA3 on E0771 cells. In kind it is cell-based, mouse. The protocol:
as §4

Setting [8] is: MDA-MB-468, IL-26 30 ng/ml, gefitinib 20 μM.

Entries after “also recorded” stand apart in the source; their conditions may differ.

Consider `COc1cc2ncnc(Nc3ccc(F)c(Cl)c3)c2cc1OCCCN1CCOCC1` [gefitinib, Gefitinib, reference compound], for which, in test [1] (HCC70, gefitinib 40 μM), the “mitochondrial activity, gefitinib treatment” value was “significantly reduced mitochondrial activity”. The “mRNA expression levels of DDIT3, ATF3 and ATF4, gefitinib treatment” value is on record as “significantly increased” in test [2] (MDA-MB-468, gefitinib 20 μM, FIG. 29) and “significantly increased” in test [5] (HCC70, gefitinib 40 μM, FIG. 28). Besides, the “mRNA expression levels of IL-6, IL-8 and CXCL2, gefitinib treatment” value in test [2] (MDA-MB-468, gefitinib 20 μM, FIG. 34) is on record as “significantly increased”; in test [5] (HCC70, gefitinib 40 μM, 6 hours, FIG. 34) it was “significantly increased”. For the same molecule, the “cell proliferation under gefitinib treatment” value in test [3] (E0771, 48 hours, FIGS. 2A to 2C) is given as “suppressed”; in test [4] (HCC70, 48 hours, FIGS. 3A to 3C) it was “suppressed”. For the same molecule, in test [5] (HCC70, gefitinib 40 μM, 24 hours, immunocytochemical staining, FIG. 30), the “expression of DDIT3 at the protein level, gefitinib treatment” value is “marked increase”. Besides, the “AKT and JNK phosphorylation under gefitinib” value in test [6] (E0771, gefitinib 20 μM, FIG. 24B) is “suppression of AKT and JNK phosphorylation”.

B1: 69-10: mouse anti-human IL-26 monoclonal antibody, clone 69-10, from deposited hybridoma (antibody, V domains shown)
VH: QVTLKESGPGILKPSQTLSLTCSFSGFSLSTSGMGVGWIRQPSGKGLEWLAHIWWDDDKYYNPSLKSQLTISKDTSRNQVFLKITSVDTADTATYYCVRGGITATHYYAMDYWGQGTSVTVSS
VL: DIQMTQSPASQSASLGESVTISCLASQTIGTWLSWYQQKPGKSPQLLIYAATSLADGVPSRFSGSGSGTKFSFKISSLQAEDFVSYYCQQLYSSPWTFGGGTKLEIK
With B1, the “reversal of inhibitory effect of IL-26 on gefitinib-induced suppression of cell proliferation (MTT)” value in test [3] (E0771, IL-26 30 ng/ml, gefitinib 20 μM, antibody 20 μg/ml, 48 hours, FIG. 5D) is “reversed the inhibitory effect of IL-26 on gefitinib-induced suppression of cell proliferation”. Also, the “reversal of effect of IL-26 on gefitinib-induced suppression of cell proliferation (percent confluence)” value in test [3] (E0771, gefitinib 15 μM and IL-26, antibody 10 μg/ml (mixture 2.5 μg/ml each), FIG. 11) was “reversed the effect of IL-26 on gefitinib-induced suppression of cell proliferation”. For the same molecule, the “reversal of inhibitory effect of IL-26 on gefitinib-induced suppression of cell proliferation” value in test [4] (HCC70, IL-26 30 ng/ml, gefitinib 40 μM, 48 hours, MTT, FIG. 59) is “reversed the inhibitory effect of IL-26 on gefitinib-induced suppression of cell proliferation in an antibody dose-dependent manner”. Moreover, in test [7] (E0771, antibodies 10 μg/ml, FIGS. 19 and 20), the “inhibition of colocalization of IL-26 with EphA3 (EphA3/IL-26 interaction)” value is “significantly inhibited”. In addition, in test [5] (HCC70, 24 hours, antibodies 50 μg/ml, FIG. 32 lower), the “inhibition of the decrease in expression of DDIT3 at the protein level by IL-26 together with gefitinib” value is “significantly inhibited”. In test [5] (HCC70 cells treated with gefitinib and IL-26), the “inhibitory effect compared with anti-EphA3 pAb” value was “stronger than that of anti-EphA315 pAb”. The “reversal of effect of IL-26 on gefitinib-induced DDIT3 expression and mitochondrial membrane depolarization” value in test [5] (HCC70 cells treated with gefitinib and IL-26, FIGS. 32 and 33) is reported as “reversed the effect of IL-26”.

B2: IL-26: recombinant human IL-26 dimers for cell stimulation, R&D Systems (protein)
chain: T1 sequence (Q9NPH9 22-171)
On to B2, for which, in test [1] (HCC70, IL-26 30 ng/ml, gefitinib 40 μM), the “mitochondrial activity, IL-26 with gefitinib” value is “significantly inhibited the reduction in mitochondrial activity”. For the same molecule, the “mRNA expression levels of DDIT3, ATF3 and ATF4, IL-26 with gefitinib” value was “significantly decreased” in test [2] (setting [8]) and “clearly reduced” in test [5] (HCC70, IL-26 30 ng/ml, gefitinib 40 μM, FIG. 28). Moreover, the “mRNA expression levels of IL-6, IL-8 and CXCL2, IL-26 with gefitinib” value in test [2] (setting [8]) was “significantly reduced”; in test [5] (HCC70, IL-26 30 ng/ml, gefitinib 40 μM, 6 hours, FIG. 34) it was “significantly reduced”. In addition, the “effect of exogenous IL-26 on inhibitory effect of erlotinib” value in test [3] (E0771, IL-26 30 ng/ml, erlotinib 30 μM or 50 μM, 48 hours, MTT) is listed as “inhibited the inhibitory effect of erlotinib on cell proliferation”; in test [4] (HCC70, IL-26 30 ng/ml, erlotinib 30 μM or 50 μM, 48 hours, MTT), “inhibited the inhibitory effect of erlotinib on cell proliferation”. Further, the “effect of exogenous IL-26 on gefitinib-induced suppression of cell proliferation” value in test [3] (E0771, IL-26 with gefitinib, 48 hours) is “significantly inhibited the cell proliferation suppression induced by gefitinib; also recorded: significantly suppressed in a dose-dependent manner”; in test [4] (HCC70, IL-26 with gefitinib, 48 hours) it was “significantly inhibited the cell proliferation suppression induced by gefitinib”. Also, the “cell proliferation, IL-26 treatment alone” value in test [3] (E0771, no gefitinib) is reported as “did not affect cell proliferation”. The “colocalization of exogenous IL-26 with cell surface EphA3” value in test [7] (E0771, FIGS. 17 and 18) was “colocalized with the cell surface EphA3”. In addition, in test [5] (HCC70, IL-26 30 ng/ml, gefitinib 40 μM, 24 hours, FIG. 30), the “expression of DDIT3 at the protein level, IL-26 with gefitinib” value is recorded as “significant decrease”. The “phosphorylation of EphA3” value in test [6] (E0771, IL-26 30 ng/ml, 0 to 60 minutes, FIG. 24A) was “induced dephosphorylation of EphA3”. The “AKT and JNK phosphorylation” value in test [6] (E0771, IL-26 30 ng/ml, FIG. 5E) is “activated AKT and JNK phosphorylation”. For the same molecule, the STAT3 activation result in test [6] (E0771, IL-26 30 ng/ml, FIG. 5E) is on record as “did not activate STAT3”.

The values above are taken from US20230398116A1, “Agent for reversing resistance to anticancer drugs” (Y'S AC CO., LTD., priority 2020, published 2023).
